According to publication PMC5553161:

Molecular target: VAP-B (human (endogenous in Huh7)) (UniProt O95292)
Experiment: co-IP; lysates of Huh7 cells stably harboring wild-type, S225D or S225A SGRs immunoprecipitated with antibodies to NAP1L1, Bin1, VAP-A or VAP-B; Western blot for NS5A, quantified (n = 3)

UniProt O95292, sequence (O95292 whole entry): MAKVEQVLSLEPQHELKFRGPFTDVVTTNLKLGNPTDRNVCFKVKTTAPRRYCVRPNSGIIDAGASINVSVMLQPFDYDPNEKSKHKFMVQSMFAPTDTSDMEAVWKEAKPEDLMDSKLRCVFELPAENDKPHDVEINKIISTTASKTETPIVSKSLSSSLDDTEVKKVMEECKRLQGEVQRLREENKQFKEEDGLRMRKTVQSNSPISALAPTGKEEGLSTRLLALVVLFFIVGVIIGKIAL

Q: Which reduction in the level bound, against wild type does the source give for “One-Strep-tagged (OST) NS5A S225A of hepatitis C virus JFH-1 (genotype 2a) (natural protein)” here?
A: The reduction in the level bound, against wild type was 50%.
